T1: human MDGA1 extracellular domain (MDGA1_(ECTO); Gln19-Lys925) (human, UniProt Q8NFP4-1 19-925)
T1 construct: human MAM domain-containing glycosylphosphatidylinositol anchor protein 1, Gln19-Lys925; Not deglycosylated; also called human MDGA1_(ECTO); source: HEK293T, transient transfection, purified (IMAC, SEC)
T1 sequence (looked up): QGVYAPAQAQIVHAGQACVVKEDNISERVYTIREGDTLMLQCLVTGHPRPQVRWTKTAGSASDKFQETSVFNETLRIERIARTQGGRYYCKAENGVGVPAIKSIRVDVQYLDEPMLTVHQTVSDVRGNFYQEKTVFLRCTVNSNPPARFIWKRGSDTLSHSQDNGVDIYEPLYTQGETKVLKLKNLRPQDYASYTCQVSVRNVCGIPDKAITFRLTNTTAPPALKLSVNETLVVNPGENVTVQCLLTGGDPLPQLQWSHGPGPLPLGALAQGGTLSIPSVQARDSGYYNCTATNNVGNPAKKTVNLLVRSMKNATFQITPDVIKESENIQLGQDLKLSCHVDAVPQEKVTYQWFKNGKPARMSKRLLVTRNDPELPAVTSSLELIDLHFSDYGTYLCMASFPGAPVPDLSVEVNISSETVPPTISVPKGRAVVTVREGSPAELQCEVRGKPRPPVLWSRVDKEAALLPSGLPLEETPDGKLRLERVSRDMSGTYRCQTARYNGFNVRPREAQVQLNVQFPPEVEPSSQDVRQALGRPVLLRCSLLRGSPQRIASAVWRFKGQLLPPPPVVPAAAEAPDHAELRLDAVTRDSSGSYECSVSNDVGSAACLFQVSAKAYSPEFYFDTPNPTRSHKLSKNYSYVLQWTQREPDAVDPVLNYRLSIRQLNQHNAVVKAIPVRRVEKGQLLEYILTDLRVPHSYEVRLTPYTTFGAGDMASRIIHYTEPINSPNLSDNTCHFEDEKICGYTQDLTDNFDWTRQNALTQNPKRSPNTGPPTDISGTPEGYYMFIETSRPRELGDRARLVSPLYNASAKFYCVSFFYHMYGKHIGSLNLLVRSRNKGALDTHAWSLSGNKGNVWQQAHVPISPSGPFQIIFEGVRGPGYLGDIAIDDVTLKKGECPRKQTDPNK

T2: human MDGA2 extracellular domain (MDGA2_(ECTO); Gln21-Lys927) (human, UniProt Q7Z553 21-927)
T2 construct: human MAM domain-containing glycosylphosphatidylinositol anchor protein 2, Gln21-Lys927; Not deglycosylated; source: HEK293T, transient transfection, purified (IMAC, SEC)
T2 sequence (looked up): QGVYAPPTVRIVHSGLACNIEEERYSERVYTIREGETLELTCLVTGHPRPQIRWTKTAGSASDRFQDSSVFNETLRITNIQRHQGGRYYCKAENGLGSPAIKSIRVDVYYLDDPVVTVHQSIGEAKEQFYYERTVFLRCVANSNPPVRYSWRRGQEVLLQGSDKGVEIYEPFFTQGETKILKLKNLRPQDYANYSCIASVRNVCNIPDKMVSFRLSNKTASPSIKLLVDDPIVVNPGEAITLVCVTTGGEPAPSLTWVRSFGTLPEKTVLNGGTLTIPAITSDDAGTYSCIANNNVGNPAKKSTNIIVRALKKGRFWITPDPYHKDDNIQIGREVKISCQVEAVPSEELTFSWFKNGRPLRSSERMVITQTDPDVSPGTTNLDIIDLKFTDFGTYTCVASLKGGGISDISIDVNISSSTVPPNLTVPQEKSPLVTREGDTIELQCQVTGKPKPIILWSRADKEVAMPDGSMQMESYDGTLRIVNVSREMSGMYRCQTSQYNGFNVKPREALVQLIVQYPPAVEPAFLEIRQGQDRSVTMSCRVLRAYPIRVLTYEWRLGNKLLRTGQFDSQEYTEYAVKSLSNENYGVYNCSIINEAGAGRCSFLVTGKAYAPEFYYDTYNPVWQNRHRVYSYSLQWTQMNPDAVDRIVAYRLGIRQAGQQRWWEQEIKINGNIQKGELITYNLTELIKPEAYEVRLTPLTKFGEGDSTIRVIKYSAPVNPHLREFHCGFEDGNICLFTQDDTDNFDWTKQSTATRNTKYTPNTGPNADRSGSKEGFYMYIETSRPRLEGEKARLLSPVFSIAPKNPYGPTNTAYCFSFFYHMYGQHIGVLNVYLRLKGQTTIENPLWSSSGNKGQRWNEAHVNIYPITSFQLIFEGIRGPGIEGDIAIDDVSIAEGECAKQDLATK


Key:
[1] = target: T1, human MDGA1 extracellular domain …; test: SPR; biotinylated NL_(ECTO)-Avitag variants captured from dialysed conditioned medium on streptavidin CM5 chip (500 RU; 550 RU for the ΔSite series; 1000 RU for NL3 and NL3 Arg451Cys in the R451C series); β-NRX1_(LNS6)(±4), MDGA1_(ECTO), MDGA2_(ECTO) injected, 15 concentrations, two-fold series from 50 μM; TBS-CTB (10 mM Tris pH 7.4, 150 mM NaCl, 3 mM CaCl2, 0.005% Tween-20, 1.0 g/L BSA); equilibrium analysis, 1:1 …; details: both partners purified
[2] = target: T2, human MDGA2 extracellular domain …; test: as above; details: both partners purified

binding result [1] | binding result [2] | Kd [1] [nM] | Kd [2] [nM] | Binder
binds | binds |  |  | human NL3(–A)_(ECTO) (Gln38-Asp636), immobilised for SPR (domain or fragment, UniProt Q9NZ94-1 38-636, looked up, biotin on the Avitag (in vivo biotinylation by BirA), also called NL3_(ECTO); source: HEK293T, co-transfected with ER-resident BirA; dialysed conditioned medium, captured on streptavidin chip) QAPAPTVNTHFGKLRGARVPLPSEILGPVDQYLGVPYAAPPIGEKRFLPPEPPPSWSGIRNATHFPPVCPQNIHTAVPEVMLPVWFTANLDIVATYIQEPNEDCLYLNVYVPTEDDIRDSGAKPVMVYIHGGSYMEGTGNMIDGSILASYGNVIVITLNYRVGVLGFLSTGDQAAKGNYGLLDQIQALRWVSENIAFFGGDPRRITVFGSGIGASCVSLLTLSHHSEGLFQRAIIQSGSALSSWAVNYQPVKYTSLLADKVGCNVLDTVDMVDCLRQKSAKELVEQDIQPARYHVAFGPVIDGDVIPDDPEILMEQGEFLNYDIMLGVNQGEGLKFVEGVVDPEDGVSGTDFDYSVSNFVDNLYGYPEGKDTLRETIKFMYTDWADRDNPETRRKTLVALFTDHQWVEPSVVTADLHARYGSPTYFYAFYHHCQSLMKPAWSDAAHGDEVPYVFGVPMVGPTDLFPCNFSKNDVMLSAVVMTYWTNFAKTGDPNKPVPQDTKFIHTKANRFEEVAWSKYNPRDQLYLHIGLKPRVRDHYRATKVAFWKHLVPHLYNLHD
binds | binds |  |  | human NL4_(ECTO) (NL4(X); Gln42-Glu602), immobilised for SPR (domain or fragment, biotin on the Avitag (in vivo biotinylation by BirA), human neuroligin-4 (X-linked), Gln42-Glu602; source: HEK293T, co-transfected with ER-resident BirA; dialysed conditioned medium, captured on streptavidin chip) QAQYPVVNTNYGKIRGLRTPLPNEILGPVEQYLGVPYASPPTGERRFQPPEPPSSWTGIRNTTQFAAVCPQHLDERSLLHDMLPIWFTANLDTLMTYVQDQNEDCLYLNIYVPTEDDIHDQNSKKPVMVYIHGGSYMEGTGNMIDGSILASYGNVIVITINYRLGILGFLSTGDQAAKGNYGLLDQIQALRWIEENVGAFGGDPKRVTIFGSGAGASCVSLLTLSHYSEGLFQKAIIQSGTALSSWAVNYQPAKYTRILADKVGCNMLDTTDMVECLRNKNYKELIQQTITPATYHIAFGPVIDGDVIPDDPQILMEQGEFLNYDIMLGVNQGEGLKFVDGIVDNEDGVTPNDFDFSVSNFVDNLYGYPEGKDTLRETIKFMYTDWADKENPETRRKTLVALFTDHQWVAPAVATADLHAQYGSPTYFYAFYHHCQSEMKPSWADSAHGDEVPYVFGIPMIGPTELFSCNFSKNDVMLSAVVMTYWTNFAKTGDPNQPVPQDTKFIHTKPNRFEEVAWSKYNPKDQLYLHIGLKPRVRDHYRATKVAFWLELVPHLHNLNE
binds | binds |  |  | human NL5_(ECTO) (NL4(Y); Gln42-Glu602), immobilised for SPR (domain or fragment, biotin on the Avitag (in vivo biotinylation by BirA), human neuroligin-5 (neuroligin-4, Y-linked), Gln42-Glu602; source: HEK293T, co-transfected with ER-resident BirA; dialysed conditioned medium, captured on streptavidin chip) QAQYPVVNTNYGKIQGLRTPLPSEILGPVEQYLGVPYASPPTGERRFQPPESPSSWTGIRNATQFSAVCPQHLDERFLLHDMLPIWFTTSLDTLMTYVQDQNEDCLYLNIYVPMEDDIHEQNSKKPVMVYIHGGSYMEGTGNMIDGSILASYGNVIVITINYRLGILGFLSTGDQAAKGNYGLLDQIQALRWIEENVGAFGGDPKRVTIFGSGAGASCVSLLTLSHYSEGLFQKAIIQSGTALSSWAVNYQPAKYTRILADKVGCNMLDTTDMVECLKNKNYKELIQQTITPATYHIAFGPVIDGDVIPDDPQILMEQGEFLNYDIMLGVNQGEGLKFVDGIVDNEDGVTPNDFDFSVSNFVDNLYGYPEGKDTLRETIKFMYTDWADKENPETRRKTLVALFTDHQWVAPAVATADLHAQYGSPTYFYAFYHHCQSEMKPSWADSAHGDEVPYVFGIPMIGPTELFSCNFSKNDVMLSAVVMTYWTNFAKTGDPNQPVPQDTKFIHTKPNRFEEVAWSKYNPKDQLYLHIGLKPRVRDHYRATKVAFWLELVPHLHNLNE
 |  | ~2000 | ~1000 | human NL2(–A)_(ECTO) (Glu38-His612), immobilised for SPR (domain or fragment, UniProt Q8NFZ4 38-612, looked up, biotin on the Avitag (in vivo biotinylation by BirA), also called NL2_(ECTO); source: HEK293T, co-transfected with ER-resident BirA; dialysed conditioned medium, captured on streptavidin chip) EERFPVVNTAYGRVRGVRRELNNEILGPVVQFLGVPYATPPLGARRFQPPEAPASWPGVRNATTLPPACPQNLHGALPAIMLPVWFTDNLEAAATYVQNQSEDCLYLNLYVPTEDDIRDPGKKPVMLFLHGGSYMEGTGNMFDGSVLAAYGNVIVATLNYRLGVLGFLSTGDQAAKGNYGLLDQIQALRWLSENIAHFGGDPERITIFGSGAGASCVNLLILSHHSEGLFQKAIAQSGTAISSWSVNYQPLKYTRLLAAKVGCDREDSAEAVECLRRKPSRELVDQDVQPARYHIAFGPVVDGDVVPDDPEILMQQGEFLNYDMLIGVNQGEGLKFVEDSAESEDGVSASAFDFTVSNFVDNLYGYPEGKDVLRETIKFMYTDWADRDNGEMRRKTLLALFTDHQWVAPAVATAKLHADYQSPVYFYTFYHHCQAEGRPEWADAAHGDELPYVFGVPMVGATDLFPCNFSKNDVMLSAVVMTYWTNFAKTGDPNQPVPQDTKFIHTKPNRFEEVVWSKFNSKEKQYLHIGLKPRVRDNYRANKVAFWLELVPHLHNLH
binds | binds |  |  | human NL3(+A1)_(ECTO), immobilised for SPR (domain or fragment, UniProt Q9NZ94-1 38-636, looked up, biotin on the Avitag (in vivo biotinylation by BirA), source: HEK293T, co-transfected with ER-resident BirA; dialysed conditioned medium, captured on streptavidin chip) QAPAPTVNTHFGKLRGARVPLPSEILGPVDQYLGVPYAAPPIGEKRFLPPEPPPSWSGIRNATHFPPVCPQNIHTAVPEVMLPVWFTANLDIVATYIQEPNEDCLYLNVYVPTEDVKRISKECARKPNKKICRKGDIRDSGAKPVMVYIHGGSYMEGTGNMIDGSILASYGNVIVITLNYRVGVLGFLSTGDQAAKGNYGLLDQIQALRWVSENIAFFGGDPRRITVFGSGIGASCVSLLTLSHHSEGLFQRAIIQSGSALSSWAVNYQPVKYTSLLADKVGCNVLDTVDMVDCLRQKSAKELVEQDIQPARYHVAFGPVIDGDVIPDDPEILMEQGEFLNYDIMLGVNQGEGLKFVEGVVDPEDGVSGTDFDYSVSNFVDNLYGYPEGKDTLRETIKFMYTDWADRDNPETRRKTLVALFTDHQWVEPSVVTADLHARYGSPTYFYAFYHHCQSLMKPAWSDAAHGDEVPYVFGVPMVGPTDLFPCNFSKNDVMLSAVVMTYWTNFAKTGDPNKPVPQDTKFIHTKANRFEEVAWSKYNPRDQLYLHIGLKPRVRDHYRATKVAFWKHLVPHLYNLHD
binds | binds |  |  | human NL2(+A)_(ECTO), immobilised for SPR (domain or fragment, UniProt Q8NFZ4 38-612, looked up, biotin on the Avitag (in vivo biotinylation by BirA), source: HEK293T, co-transfected with ER-resident BirA; dialysed conditioned medium, captured on streptavidin chip) EERFPVVNTAYGRVRGVRRELNNEILGPVVQFLGVPYATPPLGARRFQPPEAPASWPGVRNATTLPPACPQNLHGALPAIMLPVWFTDNLEAAATYVQNQSEDCLYLNLYVPTEDGPLTKKRDEATLNPPDTDIRDPGKKPVMLFLHGGSYMEGTGNMFDGSVLAAYGNVIVATLNYRLGVLGFLSTGDQAAKGNYGLLDQIQALRWLSENIAHFGGDPERITIFGSGAGASCVNLLILSHHSEGLFQKAIAQSGTAISSWSVNYQPLKYTRLLAAKVGCDREDSAEAVECLRRKPSRELVDQDVQPARYHIAFGPVVDGDVVPDDPEILMQQGEFLNYDMLIGVNQGEGLKFVEDSAESEDGVSASAFDFTVSNFVDNLYGYPEGKDVLRETIKFMYTDWADRDNGEMRRKTLLALFTDHQWVAPAVATAKLHADYQSPVYFYTFYHHCQAEGRPEWADAAHGDELPYVFGVPMVGATDLFPCNFSKNDVMLSAVVMTYWTNFAKTGDPNQPVPQDTKFIHTKPNRFEEVVWSKFNSKEKQYLHIGLKPRVRDNYRANKVAFWLELVPHLHNLH

Source: paper PMC5563082, “Structural Mechanism for Modulation of Synaptic Neuroligin-Neurexin Signaling by MDGA Proteins” (Neuron, 2017)
